Test results as given in patent US20180155451A1 (published 2018).

Experiments:
[1] = molecular target: T1, FcγRIIIa extracellular domain with C-terminal His tag (human, UniProt P08637 17-208); assay: SPR (Biacore); ratio of He/Con_3a (FcγRIIIa) to He/Con_2b (FcγRIIb)
T1 construct: extracellular domain; also called FcgRIIIa; 3a; not shown: His tag at the C terminus
Experimental: (§1) The heterodimerized antibodies He Abs in which one of the H chains was introduced with an alteration were assayed for their binding activities to each activating FcγR and inhibitory FcγR according to the method described in Example 4. […] The activating FcγRs in FIGS. 26, 27, 28, and 29 are FcγRIa, FcγRIIa (R), FcγRIIa (H), and FcγRIIIa, respectively.
(§2) Analysis of interaction between objective antibody and the FcγR was carried out using Biacore T100 (GE Healthcare). HBS-EP+ (GE Healthcare) was used as the running buffer, and the measurement temperature was set to 25° C. Chips produced by immobilizing the antigen peptide by the amine coupling method to a Series S Sencor Chip CM5 (GE Healthcare), or alternatively, chips produced by allowing preliminarily biotinylated antigen peptides to interact with and immobilize onto a Series S Sensor Chip SA (certified) (GE Healthcare) were used. Antibodies of interest were captured onto an antigen peptide-immobilized chip, and allowed to interact to each FcγR diluted with running buffer. To regenerate and repeatedly use the chip, the antibodies captured on the chip were washed off by reacting 10 mM glycine-HCl, pH 1.5.

[2] = molecular target: T2, FcγRIIb extracellular domain with C-terminal His tag (human, UniProt P31994 43-217); assay: SPR (Biacore), antibody captured, FcγR as analyte; He Ab binding / GpH7-A5/GpH7-B3/GpL16-k0 binding x 100
T2 construct: extracellular domain; also called FcgRIIb; 2b; not shown: His tag at the C terminus
T2 sequence (looked up): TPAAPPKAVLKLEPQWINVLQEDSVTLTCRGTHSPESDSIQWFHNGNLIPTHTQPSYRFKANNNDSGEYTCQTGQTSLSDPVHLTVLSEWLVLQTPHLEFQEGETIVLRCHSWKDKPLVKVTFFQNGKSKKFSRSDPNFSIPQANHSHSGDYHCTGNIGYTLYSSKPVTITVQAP
Experimental: as §1, §2

[3] = molecular target: T1, FcγRIIIa extracellular domain with …; assay: as above
Experimental: as §1, §2

[4] = molecular target: T3, FcγRIa extracellular domain with C-terminal His tag (human, UniProt P12314 16-292); assay: SPR (Biacore), captured antibody, FcγRIa analyte; relative to GpH7-A5/GpH7-B3/GpL16-k0 = 100
T3 construct: extracellular domain; Expressed in FreeStyle293 cells; used as analyte in Biacore; also called FcgRI; 1a; not shown: His tag at the C terminus
T3 sequence (P12314 16-292): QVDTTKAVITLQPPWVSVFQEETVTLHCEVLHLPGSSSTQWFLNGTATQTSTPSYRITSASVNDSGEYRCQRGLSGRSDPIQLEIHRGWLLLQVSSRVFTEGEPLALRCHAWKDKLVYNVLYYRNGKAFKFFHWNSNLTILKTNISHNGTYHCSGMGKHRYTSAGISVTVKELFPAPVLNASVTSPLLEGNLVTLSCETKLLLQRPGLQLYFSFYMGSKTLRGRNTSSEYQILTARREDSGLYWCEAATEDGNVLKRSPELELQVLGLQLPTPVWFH

T1 sequence (P08637 17-208): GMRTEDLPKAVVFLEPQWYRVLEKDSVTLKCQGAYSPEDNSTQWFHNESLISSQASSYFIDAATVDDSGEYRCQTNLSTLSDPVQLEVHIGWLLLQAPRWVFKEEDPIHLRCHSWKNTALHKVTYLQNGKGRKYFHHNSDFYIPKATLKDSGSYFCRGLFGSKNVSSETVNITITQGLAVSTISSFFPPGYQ

B1: GpH7-A5/GpH7-B3 variant S298_02A/GpL16-k0 (antibody, human IgG1, kappa)
heavy 1: not shown
heavy 2: not shown
light: DIVMTQSPLSLPVTPGEPASISCQASESLVHSNRNTYLHWYLQKPGQSPQLLIYKVSNRFSGVPDRFSGSGSGTDFTLKISRVEAEDVGVYYCSQNTHVPPTFGQGTKVEIERTVAAPSVFIFPPSDEQLKSGTASVVCLLNNFYPREAKVQWKVDNALQSGNSQESVTEQDSKDSTYSLSSTLTLSKADYEKHKVYACEVTHQGLSSPVTKSFNRGEC
notes: position is EU numbering; also called He Ab
B1 was tested, and the “He_3a/2b (IIIa/IIb)” value [1] was 2.18 ratio, the “He/Con_2b (IIb binding)” value [2] was 73.4 relative, control = 100 and the “He/Con_3a (IIIa binding)” value [3] was 160 relative, control = 100.

B2: GpH7-A5/GpH7-B3 variant (Y296_06M)/GpL16-k0 (antibody, human IgG1, kappa)
heavy 1: not shown
heavy 2: not shown
light: DIVMTQSPLSLPVTPGEPASISCQASESLVHSNRNTYLHWYLQKPGQSPQLLIYKVSNRFSGVPDRFSGSGSGTDFTLKISRVEAEDVGVYYCSQNTHVPPTFGQGTKVEIERTVAAPSVFIFPPSDEQLKSGTASVVCLLNNFYPREAKVQWKVDNALQSGNSQESVTEQDSKDSTYSLSSTLTLSKADYEKHKVYACEVTHQGLSSPVTKSFNRGEC
notes: Heterodimerized; only the B3 chain altered; also called He Ab Y296_06M
B2 was tested, and the He/Con_1a [4] was 104 % of control.

B3: GpH7-A5/GpH7-B3 variant (Y300_20W)/GpL16-k0 (antibody, human IgG1, kappa)
heavy 1: not shown
heavy 2: not shown
light: DIVMTQSPLSLPVTPGEPASISCQASESLVHSNRNTYLHWYLQKPGQSPQLLIYKVSNRFSGVPDRFSGSGSGTDFTLKISRVEAEDVGVYYCSQNTHVPPTFGQGTKVEIERTVAAPSVFIFPPSDEQLKSGTASVVCLLNNFYPREAKVQWKVDNALQSGNSQESVTEQDSKDSTYSLSSTLTLSKADYEKHKVYACEVTHQGLSSPVTKSFNRGEC
notes: Heterodimerized; only the B3 chain altered; also called He Ab Y300_20W
For B3, the He/Con_1a [4] was 112 % of control.

B4: GpH7-A5/GpH7-B3 variant (Y296_11K)/GpL16-k0 (antibody, human IgG1, kappa)
heavy 1: not shown
heavy 2: not shown
light: DIVMTQSPLSLPVTPGEPASISCQASESLVHSNRNTYLHWYLQKPGQSPQLLIYKVSNRFSGVPDRFSGSGSGTDFTLKISRVEAEDVGVYYCSQNTHVPPTFGQGTKVEIERTVAAPSVFIFPPSDEQLKSGTASVVCLLNNFYPREAKVQWKVDNALQSGNSQESVTEQDSKDSTYSLSSTLTLSKADYEKHKVYACEVTHQGLSSPVTKSFNRGEC
notes: Heterodimerized; only the B3 chain altered; also called He Ab Y296_11K
B4 was tested, and the He/Con_1a [4] was 105 % of control.

B5: GpH7-A5/GpH7-B3 variant (Y300_14T)/GpL16-k0 (antibody, human IgG1, kappa)
heavy 1: not shown
heavy 2: not shown
light: DIVMTQSPLSLPVTPGEPASISCQASESLVHSNRNTYLHWYLQKPGQSPQLLIYKVSNRFSGVPDRFSGSGSGTDFTLKISRVEAEDVGVYYCSQNTHVPPTFGQGTKVEIERTVAAPSVFIFPPSDEQLKSGTASVVCLLNNFYPREAKVQWKVDNALQSGNSQESVTEQDSKDSTYSLSSTLTLSKADYEKHKVYACEVTHQGLSSPVTKSFNRGEC
notes: Heterodimerized; only the B3 chain altered; also called He Ab Y300_14T
B5 was tested, and the He/Con_1a [4] was 112 % of control.

B6: GpH7-A5/GpH7-B3 variant (Y296_20W)/GpL16-k0 (antibody, human IgG1, kappa)
heavy 1: not shown
heavy 2: not shown
light: DIVMTQSPLSLPVTPGEPASISCQASESLVHSNRNTYLHWYLQKPGQSPQLLIYKVSNRFSGVPDRFSGSGSGTDFTLKISRVEAEDVGVYYCSQNTHVPPTFGQGTKVEIERTVAAPSVFIFPPSDEQLKSGTASVVCLLNNFYPREAKVQWKVDNALQSGNSQESVTEQDSKDSTYSLSSTLTLSKADYEKHKVYACEVTHQGLSSPVTKSFNRGEC
notes: Heterodimerized; only the B3 chain altered; also called He Ab Y296_20W
For B6, the He/Con_1a [4] was 111 % of control.

B7: GpH7-A5/GpH7-B3 variant (Y300_06M)/GpL16-k0 (antibody, human IgG1, kappa)
heavy 1: not shown
heavy 2: not shown
light: DIVMTQSPLSLPVTPGEPASISCQASESLVHSNRNTYLHWYLQKPGQSPQLLIYKVSNRFSGVPDRFSGSGSGTDFTLKISRVEAEDVGVYYCSQNTHVPPTFGQGTKVEIERTVAAPSVFIFPPSDEQLKSGTASVVCLLNNFYPREAKVQWKVDNALQSGNSQESVTEQDSKDSTYSLSSTLTLSKADYEKHKVYACEVTHQGLSSPVTKSFNRGEC
notes: Heterodimerized; only the B3 chain altered; also called He Ab Y300_06M
B7 was tested, and the He/Con_1a [4] was 112 % of control.

B8: GpH7-A5/GpH7-B3 variant (Y300_02A)/GpL16-k0 (antibody, human IgG1, kappa)
heavy 1: not shown
heavy 2: not shown
light: DIVMTQSPLSLPVTPGEPASISCQASESLVHSNRNTYLHWYLQKPGQSPQLLIYKVSNRFSGVPDRFSGSGSGTDFTLKISRVEAEDVGVYYCSQNTHVPPTFGQGTKVEIERTVAAPSVFIFPPSDEQLKSGTASVVCLLNNFYPREAKVQWKVDNALQSGNSQESVTEQDSKDSTYSLSSTLTLSKADYEKHKVYACEVTHQGLSSPVTKSFNRGEC
notes: Heterodimerized; only the B3 chain altered; also called He Ab Y300_02A
B8 was tested, and the He/Con_1a [4] was 112 % of control.

B9: GpH7-A5/GpH7-B3 variant A330_03V/GpL16-k0 (antibody, human IgG1, kappa)
heavy 1: not shown
heavy 2: not shown
light: DIVMTQSPLSLPVTPGEPASISCQASESLVHSNRNTYLHWYLQKPGQSPQLLIYKVSNRFSGVPDRFSGSGSGTDFTLKISRVEAEDVGVYYCSQNTHVPPTFGQGTKVEIERTVAAPSVFIFPPSDEQLKSGTASVVCLLNNFYPREAKVQWKVDNALQSGNSQESVTEQDSKDSTYSLSSTLTLSKADYEKHKVYACEVTHQGLSSPVTKSFNRGEC
notes: as for B1
In the case of B9, the “He_3a/2b (IIIa/IIb)” value [1] is reported as 1.93 ratio, the “He/Con_2b (IIb binding)” value [2] is reported as 52.4 relative, control = 100 and the “He/Con_3a (IIIa binding)” value [3] is reported as 101 relative, control = 100.
